Reference: patent US6534035B1, “Methods of inhibiting clot formation” (President and Fellows of Harvard College, priority 1998, dated 2003)
Where “and” joins values, the source holds several entries; their conditions need not be identical. Equal values may be shown once. Blank lines part the entries; values can stand above or below the compound they belong to.

Experiments:
[1] = target: T1, FXIIIa (Homo sapiens, UniProt P00488); experiment: FXIIIa catalytic half-life: crosslinking of substrates into fibrin clots of various ages; assay type: biochemical
T1 construct: purchased American Diagnostica
T1 sequence (P00488 39-732 limits assumed): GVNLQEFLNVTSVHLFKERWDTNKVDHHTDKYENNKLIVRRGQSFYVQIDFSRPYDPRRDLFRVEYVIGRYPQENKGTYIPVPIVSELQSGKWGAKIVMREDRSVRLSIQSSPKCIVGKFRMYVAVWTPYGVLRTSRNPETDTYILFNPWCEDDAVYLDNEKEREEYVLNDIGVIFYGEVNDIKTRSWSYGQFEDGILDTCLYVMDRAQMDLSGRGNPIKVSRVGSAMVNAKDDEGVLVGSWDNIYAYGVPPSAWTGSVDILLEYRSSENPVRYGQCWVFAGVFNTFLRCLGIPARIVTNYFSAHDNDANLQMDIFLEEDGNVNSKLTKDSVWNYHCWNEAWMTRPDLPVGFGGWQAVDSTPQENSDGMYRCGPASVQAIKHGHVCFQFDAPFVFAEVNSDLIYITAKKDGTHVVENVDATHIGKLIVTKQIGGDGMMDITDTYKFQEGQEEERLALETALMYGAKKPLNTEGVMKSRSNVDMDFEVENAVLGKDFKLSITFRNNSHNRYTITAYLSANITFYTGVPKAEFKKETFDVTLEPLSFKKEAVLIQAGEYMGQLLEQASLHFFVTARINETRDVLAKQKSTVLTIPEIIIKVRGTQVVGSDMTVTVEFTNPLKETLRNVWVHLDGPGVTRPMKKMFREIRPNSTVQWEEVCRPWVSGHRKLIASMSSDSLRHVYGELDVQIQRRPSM
Procedure: (§1) Experiments were performed to determine how long FXIIIa in clots could crosslink various substrates such as human ^125I -α2AP, α2AP13-24 (SEQ ID NO:2), and 5-(biotinamido)pentylamine, into fibrin. In a typical experiment, clots were prepared (50 μl final volume) in duplicate by combining fibrinogen (2 mg/ml final), CaCl2 (2 mM final), buffer (Tris-buffered saline pH 7.4) and thrombin (1 U/ml) and incubating at 37° C. Synchronous with the addition of thrombin, or up to 240 minutes afterwards, the FXIIIa substrates 5-(biotinamido)pentylamine (0.5 mM final), ^125I -α2AP (70 μg/ml final), and α2AP13-24 (0 to 1 mM final) were mixed and added to the clot. In one set of control samples, FXIIIa was inhibited with iodoacetamide (10 mg/ml) prior to the addition of substrate; to another set, no substrate was added. After 2 hours of incubation at 37° C., iodoacetamide (10 mg/ml) was added to stop the reaction. The tubes were then centrifuged at 14,000 rpm for 2 minutes, washed and compressed in 1 ml saline to remove unbound proteins, and centrifuged again at 14,000 rpm for 2 minutes. After removal of the supernatant, the clots were solubilized in 100 μL of 9M urea, pH 9.0 at 37° C. for 60 minutes. Then 100 μl of SDS reducing sample buffer was added and the clots were placed at 85° C. for 30 minutes until fully solubilized. The samples were examined by SDS-PAGE. Crosslinked ^125I-α2AP was detected and quantitated by phosphorimaging. Samples containing crosslinked α2AP13-24 and pentylamine substrates were electroblotted to PVDF membranes and detected by ^125I-streptavidin followed by phosphorimaging or by streptavidin-peroxidase followed by the developing agents 5-bromo-4-chloro-3-indolyl phosphate-nitro blue tetrazolium using methods known in the art. In experiments examining the effect of specific amino acid residues on the crosslinking of the α2AP13-24 peptide (SEQ ID NO:2) to fibrin, crosslinking was detected by immunoblotting with an anti-peptide antibody directed against this epitope followed by ^125I-protein A and phosphorimaging. […]

[2] = target: T1, FXIIIa; experiment: Crosslinking of α2AP1-24 and variant peptides to fibrin clots; assay type: biochemical; settings: 0.5 mM of each peptide clotted with human fibrinogen; compared to wild type α2AP1-24
Procedure: A 0.5 mM concentration of each peptide was clotted with human fibrinogen. After electrophoresis of the solubilized, reduced clots on 7.5% SDS-PAGE gels and transfer to PVDF membranes, the extent of crosslinking of each peptide was determined by incubating the membranes with a polyclonal antibody directed against the amino-terminus of α2AP, followed by incubation in ^125I-protein A, and exposure in a phosphorimager. Each bar reflects phosphorimage quantification of the fibrin crosslinking α2AP1-24 and the variant peptides. The mean±SD pixel volume of the quantified blots are shown.
Experiments were performed to determine how long FXIIIa in clots could crosslink various substrates such as human ^125I -α2AP, α2AP13-24 (SEQ ID NO:2), and 5-(biotinamido)pentylamine, into fibrin. In a typical experiment, clots were prepared (50 μl final volume) in duplicate by combining fibrinogen (2 mg/ml final), CaCl2 (2 mM final), buffer (Tris-buffered saline pH 7.4) and thrombin (1 U/ml) and incubating at 37° C. Synchronous with the addition of thrombin, or up to 240 minutes afterwards, the FXIIIa substrates 5-(biotinamido)pentylamine (0.5 mM final), ^125I -α2AP (70 μg/ml final), and α2AP13-24 (0 to 1 mM final) were mixed and added to the clot. In one set of control samples, FXIIIa was inhibited with iodoacetamide (10 mg/ml) prior to the addition of substrate; to another set, no substrate was added. After 2 hours of incubation at 37° C., iodoacetamide (10 mg/ml) was added to stop the reaction. The tubes were then centrifuged at 14,000 rpm for 2 minutes, washed and compressed in 1 ml saline to remove unbound proteins, and centrifuged again at 14,000 rpm for 2 minutes. After removal of the supernatant, the clots were solubilized in 100 μL of 9M urea, pH 9.0 at 37° C. for 60 minutes. Then 100 μl of SDS reducing sample buffer was added and the clots were placed at 85° C. for 30 minutes until fully solubilized. The samples were examined by SDS-PAGE. Crosslinked ^125I-α2AP was detected and quantitated by phosphorimaging. Samples containing crosslinked α2AP13-24 and pentylamine substrates were electroblotted to PVDF membranes and detected by ^125I-streptavidin followed by phosphorimaging or by streptavidin-peroxidase followed by the developing agents 5-bromo-4-chloro-3-indolyl phosphate-nitro blue tetrazolium using methods known in the art. In experiments examining the effect of specific amino acid residues on the crosslinking of the α2AP13-24 peptide (SEQ ID NO:2) to fibrin, crosslinking was detected by immunoblotting with an anti-peptide antibody directed against this epitope followed by ^125I-protein A and phosphorimaging. In some experiments, clots were formed by mixing 25 μl pooled human fresh frozen plasma with 25 μl 30 mM CaCl2 instead of using human fibrinogen.
Although FXIIIa can crosslink a number of lysine analogs to glutamine sites in macromolecules such as fibrin, its specificity for crosslinking glutamine-containing substrates (acyl donors) such as α2AP to fibrin has not been defined. To examine specificity, a wild-type α2AP fragment spanning residues 1-24 (MEPLGWQLTSGPNQEQVSPLTLLK; SEQ ID NO:16) and a panel of α2AP variant peptides (corresponding to residues 1-24 with the exception that one residue is altered from the wild type sequence; SEQ ID NO:11, 12, 13, 14, 15) was created with mutations of residues that represented other potential crosslinking sites or residues that are conserved among different α2APS from different species. […]

[3] = test system: pulmonary emboli; experiment: Lysis of radiolabeled pulmonary emboli in ferrets; assay type: in vivo, ferret
Text: Pulmonary embolisms were induced in ferrets using standard methods, e.g., that described in Butte et al., 1997, Circulation. 95:1886-1891). Male ferrets (weighing approximately 1 kg) were anesthetized with ketamine and acepromazine. After full anesthesia had been obtained, the jugular vein and carotid artery were exposed by an anterior midline incision and cannulated with 20G catheters. Pooled, citrated human plasma was mixed with ^125I-fibrinogen to achieve a specific activity of approximately 1,000,000 cpm/ml. Individual clots were formed by mixing ^125I-fibrinogen-labeled plasma (45 μl) with 2.5 μl of bovine thrombin (100 units/ml) and 2.5 μl of calcium chloride (0.4 M). […] The radioactive content of the clots was measured in a gamma counter immediately before injection. […] Successful embolization was evinced by the accumulation of radioactivity in the thorax.
All animals received weight-adjusted heparin at 100 units/kg (bolus), a dose sufficient to keep the activated partial thromboplastin time (aPTT) above 150 seconds throughout the procedure. […] The percentage of clot lysis was determined for each ferret by dividing the total residual radioactivity in the thorax by that in the initial thrombi. […]

[4] = test system: fibrinogen; experiment: Residual fibrinogen level by sodium sulfite method; assay type: in vivo, ferret; settings: ferrets, before and after treatment
Procedure: FIG. 2 is a bar graph showing the effects of factor XIIIa activity and TPA on residual fibrinogen levels. Fibrinogen levels were measured in 25 ferrets by sodium sulfite precipitation and expressed as a percentage of the fibrinogen level prior to the experiments (“before study” level was defined as 100%). The percent residual fibrinogen level (mean±SD) is shown for each group of 5 ferrets at the end of the experiment. The following conditions were evaluated: Control, normal factor XIIIa activity, no TPA; F13-I, factor XIIIa inhibited, no TPA; TPA, TPA with normal factor XIIIa activity; TPA+F13-I, TPA with inhibited factor XIIIa activity; TPA+α2AP-I, TPA with inhibited α2 antiplasmin-fibrin crosslinking.
Blood samples were collected on K3EDTA (0.15% solution, final concentration) with aprotinin (50 kallikrein units/ml). Platelet-poor plasma was obtained by centrifugation of whole blood and assayed for fibrinogen by a standard sodium sulfite method such as that described by Rampling et al. 1976, Clin Chim Acta. 67:43-52.

[5] = target: T1, FXIIIa; experiment: Dose-dependent crosslinking of α2AP13-24 into fibrin clots; assay type: biochemical; settings: purified human fibrinogen
Procedure: as §1, with “In one set of control samples, FXIIIa was inhibited with iodoacetamide (10 mg/ml) prior to the addition of substrate; to another set, no substrate was added. After 2 hours of incubation at 37° C., iodoacetamide (10 mg/ml) was added to stop the reaction. The tubes were then centrifuged at 14,000 rpm for 2 minutes, washed and compressed in 1 ml saline to remove unbound proteins, and centrifuged again at 14,000 rpm for 2 minutes. After removal of the supernatant, the clots were solubilized in 100 μL of 9M urea, pH 9.0 at 37° C. for 60 minutes. Then 100 μl of SDS reducing sample buffer was added and the clots were placed at 85° C. for 30 minutes until fully solubilized. The samples were examined by SDS-PAGE.” left out

[6] = target: T1, FXIIIa; experiment: Variant peptides as inhibitors of the crosslinking of α2AP13-24 into fibrin; assay type: biochemical; settings: peptides used as inhibitors
Procedure: as §1, with “In one set of control samples, FXIIIa was inhibited with iodoacetamide (10 mg/ml) prior to the addition of substrate; to another set, no substrate was added. After 2 hours of incubation at 37° C., iodoacetamide (10 mg/ml) was added to stop the reaction. The tubes were then centrifuged at 14,000 rpm for 2 minutes, washed and compressed in 1 ml saline to remove unbound proteins, and centrifuged again at 14,000 rpm for 2 minutes. After removal of the supernatant, the clots were solubilized in 100 μL of 9M urea, pH 9.0 at 37° C. for 60 minutes. Then 100 μl of SDS reducing sample buffer was added and the clots were placed at 85° C. for 30 minutes until fully solubilized. The samples were examined by SDS-PAGE.” left out

[7] = Activated partial thromboplastin time in heparinized ferrets; assay type: in vivo, ferret; settings: heparin bolus 100 units/kg, throughout the experiment
Procedure: All animals received weight-adjusted heparin at 100 units/kg (bolus), a dose sufficient to keep the activated partial thromboplastin time (aPTT) above 150 seconds throughout the procedure. TPA was given as a continuous infusion over 2 hours (1 mg/kg in 5 ml of normal saline). […] The thorax was dissected and all intrathoracic structures were removed for gamma counting to detect residual thrombi. The percentage of clot lysis was determined for each ferret by dividing the total residual radioactivity in the thorax by that in the initial thrombi. A total of 28 animals was studied; three were excluded because of anesthetic-related death, improper TPA infusion, and failed embolism.

Compound: O[C@H](CS)[C@H](O)CS (racemic) [DTT, dithiothreitol]
effect of reducing agent on crosslinking in old clots ([1]; added to reaction mixtures, 2 or 4 hour old clots): restored the crosslinking of pentylamine or α2AP13-24 to fibrin clots

Compound: MEPLGWQLTSGPNQEQVSPLTNLK (listed as Homo sapiens) [L22N, α2AP1-24 variant peptide]
crosslinking of peptide to fibrin [2]: crosslinked into fibrin at rates comparable to that of the wild type

Compound: tissue plasminogen activator [TPA]
lysis of pulmonary emboli compared with other group ([3]; FIGS. 1A and 1B group comparisons): significantly increased lysis
lysis of pulmonary emboli (mean±SD) ([3]; TPA 1 mg/kg infused over 2 hours, heparin 100 units/kg, 4 hours after embolization): 32.3±7.7% and 32.2±7.7%
residual fibrinogen level at end of study, percentage of initial value [4]: nonspecific degradation of fibrinogen did not occur

Compound: hirudin [reference compound]
effect on α2AP13-24 peptide-fibrin crosslinking [5]: blocked α2AP13-24 peptide-fibrin crosslinking

crosslinking of peptide to fibrin [2]: not efficiently crosslinked to fibrin
Compound: Q14A: α2AP1-24 variant peptide containing mutation Q14A (MEPLGWQLTSGPNAEQVSPLTLLK; listed as Homo sapiens)
competition for crosslinking of α2AP13-24 into fibrin [6]: all peptides but Q14A and V17N competed for crosslinking

residual FXIIIa crosslinking of substrate ([1]; substrate added to 2 or 4 hour old clots): little residual FXIIIa crosslinking
Compound: NCCCCCNC(=O)CCCC[C@@H]1SC[C@@H]2NC(=O)N[C@@H]21 [pentylamine-biotin, 5-(biotinamido)pentylamine]

Compound: MEPLGWQLTSGPNQEAVSPLTLLK (listed as Homo sapiens) [Q16A, α2AP1-24 variant peptide]
crosslinking of peptide to fibrin [2]: crosslinked into fibrin at rates comparable to that of the wild type

Compound: heparin
activated partial thromboplastin time (aPTT) [7]: above 150 seconds

Compound: MEPLGWQLTSGPNQAQVSPLTLLK (MEPLGWQLTSGPNQAQVSPLTLLK; listed as Homo sapiens) [E15A, α2AP1-24 variant peptide]
crosslinking of peptide to fibrin [2]: crosslinked into fibrin at rates comparable to that of the wild type

crosslinking of peptide to fibrin [2]: not efficiently crosslinked to fibrin
Compound: V17N: α2AP1-24 variant peptide containing mutation V17N (MEPLGWQLTSGPNQEQNSPLTLLK; listed as Homo sapiens)
competition for crosslinking of α2AP13-24 into fibrin [6]: all peptides but Q14A and V17N competed for crosslinking
